Assay results from US20230416343A1.
Like-named read-outs stand apart in the source and are kept apart here.

B1: antibody S1D2 (antibody, V domains shown)
VH: EVQLVESGGGLIQPGGSLRLSCAASGFTVSSNYMSWVRQAPGKGLEWVSIIYPGGSTNYADSVKGRFTISRDNSRNTLYLQMNSLRAEDTAVYYCARELGYYGMDVWGQGTTVTVSS
VL: DIQMTQSPSSVSASVGDRVTITCRASQGISTWLVWYQQKPGKAPNLLIYGASSLQSGVPSRFSGSGSGTDFTLTISSLQPEDFATYYCQQANSFPYTFGQGTKLEIK
B2: S1D2LALA antibody (STI-1499) (antibody, V domains shown)
VH: B1 VH
VL: B1 VL

Experiments:
Conditions in all cases: remark: other sources report otherwise
[1] = target: T1, Recombinant SARS-CoV2 RBD having a carboxy terminal his tag (SARS-CoV-2), P0DTC2
[2] = target: T1, Recombinant SARS-CoV2 RBD having a …; remark: listed apart in the source
[3] = target: T2, SARS-CoV-2 D614G mutant spike protein expressed on HEK293 cells (SARS-CoV-2), P0DTC2
[4] = target: T3, SARS-CoV-2 spike protein expressed on HEK293 cells (SARS-CoV-2), P0DTC2
[5] = target: T2, SARS-CoV-2 D614G mutant spike protein …; remark: listed apart in the source
[6] = target: SARS-CoV-2 variant spike protein E484K on HEK293 cells (SARS-CoV-2), P0DTC2
[7] = target: SARS-CoV-2 variant spike protein F490S on HEK293 cells (SARS-CoV-2), P0DTC2
[8] = target: SARS-CoV-2 variant spike protein S494P on HEK293 cells (SARS-CoV-2), P0DTC2
[9] = target: SARS-CoV-2 variant spike protein deletion mutant del 243-244 on HEK293 cells (SARS-CoV-2), P0DTC2
[10] = target: T3, SARS-CoV-2 spike protein expressed on …; assay: flow cytometry on HEK293 cells expressing the spike; table 'spike'

Binder	Kd [1]	Kd [2]	EC50 [3]	Maxi % [3]	EC50 [4]	EC50 [5]	EC50 [6]	EC50 [7]	EC50 [8]	EC50 [9]	Maxi % [10]
B1	46 nM	46.2 nM									
B2			0.13 µg/mL	100%	0.1 µg/mL	70 µg/mL	140 µg/mL	38 µg/mL	194 µg/mL	180 µg/mL	100%
